This note sets out measurements from patent publication US20040132136A1 (ZymoGenetics, published 2004).

The data set concerns the molecule itself. The data set can be described thus: western blot of BHK conditioned media, reducing against non-reducing conditions. As for the experimental part: Following selection for stable cell transfectants, media isolated from pools was analyzed by western blot under reducing and non-reducing conditions using a Ztgfβ-9 antibody or an anti-EE epitope tag antibody. […] Under non-reducing conditions, Ztgfβ-9 protein migrated as at 49 kDa species. […] C-terminal EE tagged human Ztgfβ-9 expressed in BHK cells was also anti-EE affinity purified and its N-terminal sequence determined.
(In general: Immunoblotting shows a protein as a band on a membrane.)

B1: Human Ztgfβ-9 protein (ligand)
chain: AGAPRAGRRPARPRGCADRPEELLEQLYGRLAAGVLSAFHHTLQLGPREQARNASCPAGGRPADRRFRPPTNLRSVSPWAYRISYDPARYPRYLPEAYCLCRGCLTGLFGEEDVRFRSAPVYMPTVVLRRTPACAGGRSVYTEAYVTIPVGCTCVPEPEKDADSINSSIDKQGAKLLLGPNDAPAGP
notes: Expressed in BHK cells both with and without a C-terminal Glu-Glu tag; It migrated at 29 kDa reduced and 49 kDa non-reduced, read as a disulfide cross-linked homodimer
B1: the binding result is listed as “binds”.
